Assay results: patent publication CN111196850A (BEIJING HUIZHI HEYUAN BIOTECHNOLOGY CO LTD, dated 2020)

Columns and labels:
[1] = biological target: rhTSLP-hFc (human); test: cell-based or functional assay
[2] = biological target: rhTSLP-hFc (human); test: competition ELISA: rhTSLP-hFc coated, antibody titrated against 2 μg/ml rhTSLPR-His, anti-His-HRP detection

IC50, 抑制TSLP刺激的293F转染细胞STAT5-荧光素酶活性 [1]: 0.26 µg/mL
IC50 [2]: 0.609 µg/mL
B1: 嵌合抗体6K-3H (antibody, human IgG1, kappa)
heavy: not shown
light: DILLTQSPSSLSASLGGKVIITCKASQDINKYIAWYQHKPGKGLRLLIHYTSTLEPGIPSRFSGSGSGRDYSFSISNLEPEDIATYYCLHYDNLLTFGDGTKLELKRTVAAPSVFIFPPSDEQLKSGTASVVCLLNNFYPREAKVQWKVDNALQSGNSQESVTEQDSKDSTYSLSSTLTLSKADYEKHKLYACEVTHQGLSSPVTKSFNRGEC
